B1: NHBA_(312-427) (Neisserial heparin binding antigen, peptide 20, residues M312-D427) [Neisseria meningitidis (strain 2996)] / Fab 5H2 (Fab derived from the vaccine-elicited human monoclonal antibody 5H2) [human] (parent complex)
chain 1: MLAGTAVYNGEVLHFHTENGRPYPTRGRFAAKVDFGSKSVDGIIDSGDDLHMGTQKFKAAIDGNGFKGTWTENGGGDVSGRFYGPAGEEVAGKYSYRPTDAEKGGFGVFAGKKEQD
chain 2: not shown
chain 3: EIVMTQTPSSLSASVGDRVTITCRASQSISNYLNWYQQKPGTAPKLLTYAASSLGSGVPSRFSGSGSGTDLTLTISSLRPEDFATYYCQQSYGSPTFGQGTKLEIRRTVAAPSVFIFPPSDEQLKSGTASVVCLLNNFYPREAKVQWKVDNALQSGNSQESVTEQDSKDSTYSLSSTLTLSKADYEKHKVYACEVTHQGLSSPVTKSFNRGEC

Variants of: B1
Assay: SPR; Fab 5H2 captured on sensor chip, NHBA312-427 mutant injected; response read at end of injection (~48 s); read off a plot

Variant	response [RU]
chain 1 R28G, chain 1 K56A	~5
chain 1 R28G	~30
chain 1 R28A	~2
chain 1 E11A, chain 1 E114A	~51
chain 1 K56A	~58
chain 1 R28A, chain 1 K56A	~3
chain 1 D49A, chain 1 T54A	~42

Source: PMC6104945 (2018)
